Assay results as given in PMC6200708, “Tannerella forsythia Tfo belongs to Porphyromonas gingivalis HmuY-like family of proteins but differs in heme-binding properties” (Bioscience Reports, 2018).

Tests used:
[1] = target: HmuY (Porphyromonas gingivalis, UniProt A2BCY8); assay: UV-visible difference-spectrum heme titration of purified protein, one-site model; CD and MCD; type: binding
[2] = target: Tannerella forsythia ATCC 43037 Tfo protein (Tannerella forsythia ATCC 43037); assay: SEC; holo protein (with heme), under reducing conditions
[3] = target: Porphyromonas gingivalis A7436 HmuY protein (Porphyromonas gingivalis A7436); assay: SEC; holo protein (with heme), under oxidizing conditions
[4] = target: Porphyromonas gingivalis A7436 HmuY protein (Porphyromonas gingivalis A7436); assay: SDS/PAGE; purified protein run on SDS/PAGE; samples solubilized at 37°C for 1 h or at 100°C for 5 min

In the case of `C=CC1=C(C)C2=Cc3c(C=C)c(C)c4[n]3[Fe][n]3c(c(C)c(CCC(=O)O)c3=CC3=NC(=C4)C(C)=C3CCC(=O)O)=CC1=N2` [heme], the Kd [1] is reported as < 1 nM.

For “Tannerella forsythia ATCC 43037 Tfo protein (natural protein)”, the stoichiometry N [2] was 2.

Compound “Porphyromonas gingivalis A7436 HmuY protein (natural protein)” has a stoichiometry N [3] of 2 and a stoichiometry N [4] of 2.
